Experimental data from PMC4494967.

Columns and labels:
USP7 = USP7 (UniProt Q93009); test: anti-myc IP, western blot; settings: reference: myc-CCDC6 wild type; sites S359,S413,T427
FBXW7 = FBXW7 (UniProt Q969H0); test: anti-myc IP, anti-HA blot; settings: reference: myc-CCDC6 wild type; sites S359,S413,T427

binding against the reference (USP7): stronger
binding against the reference (FBXW7): weaker
Substance: CCDC6 (from UniProt Q16204) triple mutant S359A/S413A/T427A (TM)
